Source: the RNAGym collection of RNA variant scans (doi:10.7554/elife.80360)

B1: Twister Ribozyme (parent)
chain: AACACUGCCAAUGCCGGUCCCAAGCCCGGAUAAAAGUGGAGGGGGCGG

Variants of: B1
Experiment: self-cleavage, relative activity (ratio to wild type); higher = more cleavage; co-transcriptional

Row | Variant | self-cleavage
1 | AACACUGCCAAUGCCGGUCCCAAGCCCGGAGAAAAGUGUAGGGGGCGG | 0.203
2 | AACACUGCCAAUGCCGGUCCCAAGCCCGGAGAAAAGUGGAGGCGGCGG | 0.18
3 | AACACUGCCAAUGCCGGUCCCAAGCCCGGAGAAAAGUGGAGGUGGCGG | 0.467
4 | AACACUGCCAAUGCCGGUCCCAAGCCCGGUUAAAAGUAGAGGGGGCGG | 0.987
5 | AACACUGCCAAUGCCGGUCCCAAGCCCGGUUAAAAGUGGAGGGAGCGG | 0.971
6 | AACACUGCCAAUGCCGGUCCCAAGCCCGGUUAAAAGUGGAGGGCGCGG | 0.963
7 | AACACUGCCAAUGCCGGUCCCAAGCCCGGAGAUAAGUGGAGGGGGCGG | 0.876
8 | AACACUGCCAAUGCCGGUCCCAAGCCCGGAGACAAGUGGAGGGGGCGG | 1.03
9 | AACACUGCCAAUGCCGGUCCCAAGCCCGGAAAAAAGUGGGGGGGGCGG | 0.0937
10 | AACACUGCCAAUGCCGGUCCCAAGCCCGGAAAAAAGUGGUGGGGGCGG | 0.136
11 | AACACUGCCAAUGCCGGUCCCAAGCCCGGUUAAAAGGGGAGGGGGCGG | 0.912
12 | AACACUGCCAAUGCCGGUCCCAAGCCCGGAAAAGAGUGGAGGGGGCGG | 0.853
13 | AACACUGCCAAUGCCGGUCCCAAGCCCGGAAAAUAGUGGAGGGGGCGG | 1.07
14 | AACACUGCCAAUGCCGGUCCCAAGCCCGGAGAAUAGUGGAGGGGGCGG | 0.904
15 | AACACUGCCAAUGCCGGUCCCAAGCCCGGAGAAGAGUGGAGGGGGCGG | 0.894
16 | AACACUGCCAAUGCCGGUCCCAAGCCCGGAGAAAAUUGGAGGGGGCGG | 0.374
17 | AACACUGCCAAUGCCGGUCCCAAGCCCGGACAAAAGUGGCGGGGGCGG | 0.249
18 | AACACUGCCAAUGCCGGUCCCAAGCCCGGACAAAAGUGGGGGGGGCGG | 0.0669
19 | AACACUGCCAAUGCCGGUCCCAAGCCCGGACAAGAGUGGAGGGGGCGG | 0.664
20 | AACACUGCCAAUGCCGGUCCCAAGCCCGGACAAAAGUGGAGGGGACGG | 0.965
21 | AACACUGCCAAUGCCGGUCCCAAGCCCGGACAAAAGUGAAGGGGGCGG | 0.456
22 | AACACUGCCAAUGCCGGUCCCAAGCCCGGACAAAAGUGCAGGGGGCGG | 0.111

Row | Variant | self-cleavage
23 | AACACUGCCAAUGCCGGUCCCAAGCCCGGACACAAGUGGAGGGGGCGG | 0.925
24 | AACACUGCCAAUGCCGGUCCCAAGCCCGGACAAAAGUGGAGUGGGCGG | 0.407
25 | AACACUGCCAAUGCCGGUCCCAAGCCCGGACAAAAGUGGAGGCGGCGG | 0.194
26 | AACACUGCCAAUGCCGGUCCCAAGCCCGGACAAAAGUGGAGGAGGCGG | 0.323
27 | AACACUGCCAAUGCCGGUCCCAAGCCCGGAGAAAAGUCGAGGGGGCGG | 0.894
28 | AACACUGCCAAUGCCGGUCCCAAGCCCGGAGAAAAGUGGAGCGGGCGG | 0.699
29 | AACACUGCCAAUGCCGGUCCCAAGCCCGGAGAAAAGUGGAGAGGGCGG | 0.497
30 | AACACUGCCAAUGCCGGUCCCAAGCCCGGAGAAAUGUGGAGGGGGCGG | 1.01
31 | AACACUGCCAAUGCCGGUCCCAAGCCCGGAACAAAGUGGAGGGGGCGG | 1.09
32 | AACACUGCCAAUGCCGGUCCCAAGCCCGGAAUAAAGUGGAGGGGGCGG | 1.05
33 | AACACUGCCAAUGCCGGUCCCAAGCCCGGAAAAACGUGGAGGGGGCGG | 0.889
34 | AACACUGCCAAUGCCGGUCCCAAGCCCGGAAAAAGGUGGAGGGGGCGG | 0.803
35 | AACACUGCCAAUGCCGGUCCCAAGCCCGGAAAAAUGUGGAGGGGGCGG | 1.09
36 | AACACUGCCAAUGCCGGUCCCAAGCCCGGACAAAAGUGGAGGGAGCGG | 1.1
37 | AACACUGCCAAUGCCGGUCCCAAGCCCGGACAAAAGUGGAGGGCGCGG | 0.976
38 | AACACUGCCAAUGCCGGUCCCAAGCCCGGUUAAAAAUGGAGGGGGCGG | 0.762
39 | AACACUGCCAAUGCCGGUCCCAAGCCCGGUUAAAAUUGGAGGGGGCGG | 0.294
40 | AACACUGCCAAUGCCGGUCCCAAGCCCGGAAAAAAGUGGAGCGGGCGG | 0.503
41 | AACACUGCCAAUGCCGGUCCCAAGCCCGGAAAAAAGUGGAGAGGGCGG | 0.349
42 | AACACUGCCAAUGCCGGUCCCAAGCCCGGUUAAAAGUGGAGGGGGCAG | 0.927
43 | AACACUGCCAAUGCCGGUCCCAAGCCCGGUUAAAAGUGGAGGGGGCUG | 0.954
44 | AACACUGCCAAUGCCGGUCCCAAGCCCGGACAAAAGUGGAGGGGGUGG | 0.788

Row | Variant | self-cleavage
45 | AACACUGCCAAUGCCGGUCCCAAGCCCGGACAAAAGUGGAGGGGGAGG | 0.733
46 | AACACUGCCAAUGCCGGUCCCAAGCCCGGACAAAAGUGGAGGGGGGGG | 0.923
47 | AACACUGCCAAUGCCGGUCCCAAGCCCGGACAAAAGUCGAGGGGGCGG | 0.842
48 | AACACUGCCAAUGCCGGUCCCAAGCCCGGACAAACGUGGAGGGGGCGG | 1.03
49 | AACACUGCCAAUGCCGGUCCCAAGCCCGGACAAAGGUGGAGGGGGCGG | 0.682
50 | AACACUGCCAAUGCCGGUCCCAAGCCCGGAGGAAAGUGGAGGGGGCGG | 0.836
51 | AACACUGCCAAUGCCGGUCCCAAGCCCGGAGCAAAGUGGAGGGGGCGG | 0.946
52 | AACACUGCCAAUGCCGGUCCCAAGCCCGGAAAAAAGUGGAGGGCGCGG | 0.711
53 | AACACUGCCAAUGCCGGUCCCAAGCCCGGAAAAAAGUGGAGGGGGGGG | 0.763
54 | AACACUGCCAAUGCCGGUCCCAAGCCCGGAAAAAAGUGGAGGGGGUGG | 0.582
55 | AACACUGCCAAUGCCGGUCCCAAGCCCGGUUAAAAGUGGAGGAGGCGG | 0.278
56 | AACACUGCCAAUGCCGGUCCCAAGCCCGGUUCAAAGUGGAGGGGGCGG | 0.945
57 | AACACUGCCAAUGCCGGUCCCAAGCCCGGUUUAAAGUGGAGGGGGCGG | 0.879
58 | AACACUGCCAAUGCCGGUCCCAAGCCCGGAGAAAAGUGGAAGGGGCGG | 0.574
59 | AACACUGCCAAUGCCGGUCCCAAGCCCGGUUAAAAGUGUAGGGGGCGG | 0.212
60 | AACACUGCCAAUGCCGGUCCCAAGCCCGGUUAAAAGUGCAGGGGGCGG | 0.185
61 | AACACUGCCAAUGCCGGUCCCAAGCCCGGUUAAAAGUGAAGGGGGCGG | 0.614
62 | AACACUGCCAAUGCCGGUCCCAAGCCCGGACUAAAGUGGAGGGGGCGG | 1.02
63 | AACACUGCCAAUGCCGGUCCCAAGCCCGGUUAAAAGUGGAGGGGGGGG | 0.931
64 | AACACUGCCAAUGCCGGUCCCAAGCCCGGUUAAAAGUGGAGGGGGAGG | 0.872
65 | AACACUGCCAAUGCCGGUCCCAAGCCCGGACAAAAGUGGAGGGGGCGU | 1.11
66 | AACACUGCCAAUGCCGGUCCCAAGCCCGGUUACAAGUGGAGGGGGCGG | 0.847

Row | Variant | self-cleavage
67 | AACACUGCCAAUGCCGGUCCCAAGCCCGGUUAAUAGUGGAGGGGGCGG | 0.85
68 | AACACUGCCAAUGCCGGUCCCAAGCCCGGUUAAGAGUGGAGGGGGCGG | 0.937
69 | AACACUGCCAAUGCCGGUCCCAAGCCCGGUUAAAAGUGGAGGGGGCGA | 1
70 | AACACUGCCAAUGCCGGUCCCAAGCCCGGUUAAAAGUGGAGGGGGCGU | 1.09
71 | AACACUGCCAAUGCCGGUCCCAAGCCCGGAGAAAAGUGGAGGGGGCAG | 0.782
72 | AACACUGCCAAUGCCGGUCCCAAGCCCGGAGAAAAGUGGAGGGGGCCG | 0.755
73 | AACACUGCCAAUGCCGGUCCCAAGCCCGGUUAAAAGUGGAGAGGGCGG | 0.464
74 | AACACUGCCAAUGCCGGUCCCAAGCCCGGUUAAAAGUGGAGGGGCCGG | 0.661
75 | AACACUGCCAAUGCCGGUCCCAAGCCCGGUUAAAAGUGGAGGGGACGG | 0.817
76 | AACACUGCCAAUGCCGGUCCCAAGCCCGGUUAAAAGUGGAGGGGUCGG | 0.798
77 | AACACUGCCAAUGCCGGUCCCAAGCCCGGACAAAACUGGAGGGGGCGG | 0.635
78 | AACACUGCCAAUGCCGGUCCCAAGCCCGGACAAAAUUGGAGGGGGCGG | 0.321
79 | AACACUGCCAAUGCCGGUCCCAAGCCCGGACAAAAGUGGAAGGGGCGG | 0.539
80 | AACACUGCCAAUGCCGGUCCCAAGCCCGGACAAAAGUGGACGGGGCGG | 0.306
81 | AACACUGCCAAUGCCGGUCCCAAGCCCGGUUAAAAGUGGACGGGGCGG | 0.286
82 | AACACUGCCAAUGCCGGUCCCAAGCCCGGUUAAAAGUGGAUGGGGCGG | 0.712
83 | AACACUGCCAAUGCCGGUCCCAAGCCCGGAGAAAAGUGGAGGGGCCGG | 0.653
84 | AACACUGCCAAUGCCGGUCCCAAGCCCGGAGAAAAGUGGAGGGGUCGG | 0.883
85 | AACACUGCCAAUGCCGGUCCCAAGCCCGGAAAAAAGAGGAGGGGGCGG | 0.721
86 | AACACUGCCAAUGCCGGUCCCAAGCCCGGAAAAAAGGGGAGGGGGCGG | 0.659
87 | AACACUGCCAAUGCCGGUCCCAAGCCCGGAAAAAAGCGGAGGGGGCGG | 0.591
88 | AACACUGCCAAUGCCGGUCCCAAGCCCGGAAAAAAGUGUAGGGGGCGG | 0.168

Row | Variant | self-cleavage
89 | AACACUGCCAAUGCCGGUCCCAAGCCCGGGUAAAAGCGGAGGGGGCGG | 0.486
90 | AACACUGCCAAUGCCGGUCCCAAGCCCGGAGAAAAGUGGAGGGGGGGG | 0.852
91 | AACACUGCCAAUGCCGGUCCCAAGCCCGGAGAAAAGUGGAGGGGGUGG | 0.928
92 | AACACUGCCAAUGCCGGUCCCAAGCCCGGAAAAAAGUGGAGGGGUCGG | 0.619
93 | AACACUGCCAAUGCCGGUCCCAAGCCCGGAAAAAAGUGGAGGGGACGG | 0.727
94 | AACACUGCCAAUGCCGGUCCCAAGCCCGGACAAAAGUGGAGGGGGCAG | 0.926
95 | AACACUGCCAAUGCCGGUCCCAAGCCCGGUGAAAAGUGGAGGGGGCGG | 0.993
96 | AACACUGCCAAUGCCGGUCCCAAGCCCGGUCAAAAGUGGAGGGGGCGG | 1.02
97 | AACACUGCCAAUGCCGGUCCCAAGCCCGGACAAAAGUGGAGGGGGCGG | 1.01
98 | AACACUGCCAAUGCCGGUCCCAAGCCCGGAGAAAAGUGGAGGGGGCGG | 0.933
99 | AACACUGCCAAUGCCGGUCCCAAGCCCGGAAAAAAGUGGAGGGGGCGG | 0.751
100 | AACACUGCCAAUGCCGGUCCCAAGCCCGGAGAAAAGUGGUGGGGGCGG | 0.199
101 | AACACUGCCAAUGCCGGUCCCAAGCCCGGAGAAAAGUGGAGGGCGCGG | 0.974
102 | AACACUGCCAAUGCCGGUCCCAAGCCCGGAGAAAAGUGGAGGGAGCGG | 0.825
103 | AACACUGCCAAUGCCGGUCCCAAGCCCGGAAAAAAGUGGAUGGGGCGG | 0.55
104 | AACACUGCCAAUGCCGGUCCCAAGCCCGGAAAGAAGUGGAGGGGGCGG | 0.82
105 | AACACUGCCAAUGCCGGUCCCAAGCCCGGAAAUAAGUGGAGGGGGCGG | 0.935
106 | AACACUGCCAAUGCCGGUCCCAAGCCCGGAAAAAAGUUGAGGGGGCGG | 0.692
107 | AACACUGCCAAUGCCGGUCCCAAGCCCGGAAAAAAGUCGAGGGGGCGG | 0.801
108 | AACACUGCCAAUGCCGGUCCCAAGCCCGGAAAAAAGUAGAGGGGGCGG | 0.509
